Test results: patent publication US11965030 (Sanofi, dated 2024)
Numbering of substitutions follows the chain as printed. Names may count otherwise.

T1: GITR (UniProt Q9Y5U5 26-161, limits assumed)
T1 construct: construct not described; also called Glucocorticoid-Induce TNFR-Related Protein (GITR)
T1 sequence (looked up): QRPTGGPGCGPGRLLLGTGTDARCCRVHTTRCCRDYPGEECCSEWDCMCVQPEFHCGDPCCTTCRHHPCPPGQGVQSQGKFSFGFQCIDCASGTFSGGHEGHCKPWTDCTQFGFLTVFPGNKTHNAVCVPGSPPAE

T2: OX40 (UniProt P43489 29-216)
T2 construct: construct not described
T2 sequence (looked up): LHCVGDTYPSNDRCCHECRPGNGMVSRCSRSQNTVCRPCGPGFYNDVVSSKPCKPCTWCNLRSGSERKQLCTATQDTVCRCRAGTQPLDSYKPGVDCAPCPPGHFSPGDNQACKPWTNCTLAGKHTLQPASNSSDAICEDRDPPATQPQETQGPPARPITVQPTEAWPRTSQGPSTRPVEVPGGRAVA

B1: anti-CD40 × anti-PD-L1 Y-shaped antibody Y30 (bispecific antibody)
light 1: DIQMTQSPSSVSASVGDRVTITCRASQGIYSWLAWYQQKPGKAPNLLIYTASTLQSGVPSRFSGSGSGTDFTLTISSLQPEDFATYYCQQANIFPLTFGGGTKVEIKRTVAAPSVFIFPPSDEQLKSGTASVVCLLNNFYPREAKVQWKVDNALQSGNSQESVTEQDSKDSTYSLSSTLTLSKADYEKHKVYACEVTHQGLSSPVTKSFNRGEC
heavy 1: not shown
heavy 2: not shown
light 2: not shown
notes: CD40 arm wild type (knob); PD-L1 arm S114A,E123K,N137K / T192E,K221E (hole)
B2: GITR (Q38K-Q39E)-(CH1: T192E; CK: N137K, S114A) × OX40 (Q38E-Q39K)-(CH1: L143Q, S188V; CK: V133T, S176V) (closed) (bispecific antibody)
light 1: EIVMTQSPATLSVSPGERATLSCKASQNVGTNVAWYQKKPGQAPRLLIYSASYRYSGIPARFSGSGSGTEFTLTISSLQSEDFAVYYCQQYNTDPLTFGGGTKVEIKRTVAAPAVFIFPPSDEQLKSGTASVVCLLKNFYPREAKVQWKVDNALQSGNSQESVTEQDSKDSTYSLSSTLTLSKADYEKHKVYACEVTHQGLSSPVTKSFNRGEC
heavy: not shown
light 2: not shown
notes: Tandem Fab; also called T3
B3: GITR (CH1: T192E; CK: N137K, S114A) × OX40 (CH1: L143Q, S188V; CK: V133T, S176V) (open) (bispecific antibody)
light 1: B2 light 1 with K38Q
heavy: not shown
light 2: not shown
notes: Tandem Fab; LC-2 as printed is the light chain that elsewhere goes with PD1 (EIVLTQ...SSNWPRT), not the OX40 light chain; also called T6
B4: OX40 (CH1: L143Q, S188V; CK: V133T, S176V) × GITR (CH1: T192E; CK: N137K, S114A) (closed) (bispecific antibody)
light 1: not shown
heavy: not shown
light 2: B2 light 1 with K38Q
notes: Tandem Fab; also called T4
B5: OX40 (CH1: L143Q, S188V; CK: V133T, S176V) × GITR (CH1: T192E; CK: N137K, S114A) (open) (bispecific antibody)
light 1: not shown
heavy: not shown
light 2: B2 light 1 with K38Q
notes: Tandem Fab; also called T8
B6: GITR (Q38K-Q39E)-(CH1: T192E; CK: N137K, S114A) × OX40 (Q38E-Q39K)-(CH1: L143Q, S188V; CK: V133T, S176V) (open) (bispecific antibody)
light 1: B2 light 1
heavy: not shown
light 2: not shown
notes: Tandem Fab; also called T7
B7: OX40 (Q38E-Q39K)-(CH1: L143Q, S188V; CK: V133T, S176V) × GITR (Q38K-Q39E)-(CH1: T192E; CK: N137K, S114A) (open) (bispecific antibody)
light 1: not shown
heavy: not shown
light 2: B2 light 1
notes: Tandem Fab; also called T9
B8: OX40 (Q38E-Q39K)-(CH1: L143Q, S188V; CK: V133T, S176V) × GITR (Q38K-Q39E)-CH1: T192E; CK: N137K, S114A) closed) (bispecific antibody)
light 1: not shown
heavy: not shown
light 2: B2 light 1
notes: Tandem Fab; also called T5
B9: PD-L1 (Q38E-Q39K)-(CH1: L143Q, S188V; CK: V133T, S176V) × OX40 (Q38K-Q39E)-(CH1: T192E; CK: N137K, S114A) (open) (bispecific antibody)
light 1: not shown
heavy: not shown
light 2: B1 light 1 with Q38K, S114A, N137K
notes: Tandem Fab; also called T18
B10: CD40 (Q38E-Q39K)-(CH1: L143Q, S188V; CK: V133T, S176V) × PD-L1 (Q38K-Q39E)-(CH1: T192E; CK: N137K, S114A) (closed) (bispecific antibody)
light 1: not shown
heavy: not shown
light 2: B1 light 1 with Q38K, S114A, N137K
notes: Tandem Fab; also called T14
B11: CD40 (Q38E-Q39K)-(CH1: L143Q, S188V; CK: V133T, S176V) × PD-L1 (Q38K-Q39E)-(CH1: T192E; CK: N137K, S114A) (open) (bispecific antibody)
light 1: B1 light 1 with Q38K, S114A, N137K
heavy: not shown
light 2: not shown
notes: Tandem Fab; also called T26
B12: CD40 (Q38E-Q39K)-(CH1: L143Q, S188V; CK: V133T, S176V) × PD-L1 (Q38K-Q39E)-(CH1: T192E; CK: N137K, S114A) (closed) (bispecific antibody)
light 1: B1 light 1 with Q38K, S114A, N137K
heavy: not shown
light 2: not shown
notes: Tandem Fab; Same printed name as T14; also called T22
B13: CD40 (CH1: L143Q, S188V; CK: V133T, S176V) × PD-L1 (CH1: T192E; CK: N137K, S114A) (closed) (bispecific antibody)
light 1: B1 light 1 with S114A, N137K
heavy: not shown
light 2: not shown
notes: Tandem Fab; also called T13
B14: CD40 (CH1: L143Q, S188V; CK: V133T, S176V) × PD-L1 (CH1: T192E; CK: N137K, S114A) (open) (bispecific antibody)
light 1: B1 light 1 with S114A, N137K
heavy: not shown
light 2: not shown
notes: Tandem Fab; also called T17
B15: PD-L1 (Q38K-Q39E)-(CH1: T192E; CK: N137K, S114A) × CD40 (Q38E-Q39K)-(CH1: L143Q, S188V; CK: V133T, S176V) (open) (bispecific antibody)
light 1: not shown
heavy: not shown
light 2: B1 light 1 with S114A, N137K
notes: Tandem Fab; also called T16

biological target: T3, CD40 (UniProt P25942 21-193, limits assumed); test: SPR
T3 construct: construct not described
T3 sequence (P25942 21-193 limits assumed): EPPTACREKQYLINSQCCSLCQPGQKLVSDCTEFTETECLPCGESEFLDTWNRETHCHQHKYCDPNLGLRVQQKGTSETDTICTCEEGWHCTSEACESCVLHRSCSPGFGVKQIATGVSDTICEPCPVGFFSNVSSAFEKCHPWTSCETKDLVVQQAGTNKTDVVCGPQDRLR

binding result	Binder
binds	B1

biological target: T1, GITR; test: SPR (Biacore 3000), column 'Affinity'

Kd [nM]	Binder
0.3	B2
0.5	B3
0.9	B4
0.6	B5
0.7	B6
0.6	B7
0.7	B8

biological target: T2, OX40; test: SPR (Biacore 3000), column 'Affinity'

Kd [nM]	binding result	Binder
0.3	–	B2
–	no binding	B3
0.2	–	B4
0.3	–	B5
1	–	B6
0.2	–	B7
0.2	–	B8

biological target: T4, PD-L1 (UniProt Q9NZQ7 19-239, limits assumed); test: SPR (Biacore 3000), column 'Affinity'
T4 construct: construct not described; also called Programmed Cell Death Ligand 1 (PD-L1)
T4 sequence (Q9NZQ7 19-239 limits assumed): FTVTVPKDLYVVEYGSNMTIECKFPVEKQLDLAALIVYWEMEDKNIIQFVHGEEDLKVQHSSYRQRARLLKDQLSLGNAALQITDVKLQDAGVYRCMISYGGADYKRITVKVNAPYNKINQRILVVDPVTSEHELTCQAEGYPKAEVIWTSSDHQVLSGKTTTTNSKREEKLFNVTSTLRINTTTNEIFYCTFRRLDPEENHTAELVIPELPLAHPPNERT

Kd [nM]	Binder
0.023	B9
0.019	B10
0.051	B11
0.058	B12

biological target: T3, CD40; test: SPR (Biacore 3000), column 'Affinity'

Kd [nM]	Binder
2.4	B13
2.1	B9
2.4	B10
3.1	B14
4	B15
1.6	B11
1.7	B12
